T1: Kap114p wild type (S. cerevisiae, UniProt P53067 1-1004)
T1 construct: Kap114p (karyopherin-β), S. cerevisiae, full length, amplified from total genomic DNA; GST tag followed by a PreScission site (modified pGEX6p1); PreScission protease added during dialysis; also called Kap114p WT; GST-Kap114p (plasmid pGEX-6P-1-Kap114); source: E. coli Rosetta, purified (GST resin, MonoQ, Superdex 200)
T1 sequence (looked up): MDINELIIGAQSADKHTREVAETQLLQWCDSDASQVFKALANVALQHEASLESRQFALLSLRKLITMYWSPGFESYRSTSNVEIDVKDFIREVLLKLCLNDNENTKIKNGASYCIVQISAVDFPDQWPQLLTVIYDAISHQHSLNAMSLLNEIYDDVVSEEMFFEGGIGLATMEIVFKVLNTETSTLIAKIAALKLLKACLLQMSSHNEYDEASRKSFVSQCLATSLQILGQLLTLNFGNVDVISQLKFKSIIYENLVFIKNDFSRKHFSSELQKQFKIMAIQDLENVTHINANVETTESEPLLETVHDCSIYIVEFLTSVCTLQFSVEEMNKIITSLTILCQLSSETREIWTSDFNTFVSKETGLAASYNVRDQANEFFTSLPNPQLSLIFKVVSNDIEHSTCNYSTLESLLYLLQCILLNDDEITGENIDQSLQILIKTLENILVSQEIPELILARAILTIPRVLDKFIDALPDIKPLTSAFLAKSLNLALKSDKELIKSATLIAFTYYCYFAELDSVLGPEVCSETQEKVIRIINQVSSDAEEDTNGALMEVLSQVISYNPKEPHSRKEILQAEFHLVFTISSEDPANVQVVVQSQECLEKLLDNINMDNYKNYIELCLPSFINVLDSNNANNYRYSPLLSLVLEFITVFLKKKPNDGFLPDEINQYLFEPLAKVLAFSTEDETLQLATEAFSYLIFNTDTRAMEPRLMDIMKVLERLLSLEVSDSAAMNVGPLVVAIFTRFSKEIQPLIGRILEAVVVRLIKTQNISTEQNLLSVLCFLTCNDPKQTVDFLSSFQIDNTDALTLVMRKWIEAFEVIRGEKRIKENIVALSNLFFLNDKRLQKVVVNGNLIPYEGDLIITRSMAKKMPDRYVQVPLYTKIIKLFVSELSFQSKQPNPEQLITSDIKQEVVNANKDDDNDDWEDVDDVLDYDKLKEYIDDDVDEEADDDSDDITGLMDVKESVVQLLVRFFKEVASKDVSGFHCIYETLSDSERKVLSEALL

T2: Kap114p (Y370A) (S. cerevisiae, UniProt P53067 1-1004, Y370A)
T2 construct: Kap114p, S. cerevisiae, full length with Y370A; also called GST-Kap114p (Y370A); source: E. coli Rosetta, purified (GST resin, MonoQ, Superdex 200)
T2 sequence (looked up): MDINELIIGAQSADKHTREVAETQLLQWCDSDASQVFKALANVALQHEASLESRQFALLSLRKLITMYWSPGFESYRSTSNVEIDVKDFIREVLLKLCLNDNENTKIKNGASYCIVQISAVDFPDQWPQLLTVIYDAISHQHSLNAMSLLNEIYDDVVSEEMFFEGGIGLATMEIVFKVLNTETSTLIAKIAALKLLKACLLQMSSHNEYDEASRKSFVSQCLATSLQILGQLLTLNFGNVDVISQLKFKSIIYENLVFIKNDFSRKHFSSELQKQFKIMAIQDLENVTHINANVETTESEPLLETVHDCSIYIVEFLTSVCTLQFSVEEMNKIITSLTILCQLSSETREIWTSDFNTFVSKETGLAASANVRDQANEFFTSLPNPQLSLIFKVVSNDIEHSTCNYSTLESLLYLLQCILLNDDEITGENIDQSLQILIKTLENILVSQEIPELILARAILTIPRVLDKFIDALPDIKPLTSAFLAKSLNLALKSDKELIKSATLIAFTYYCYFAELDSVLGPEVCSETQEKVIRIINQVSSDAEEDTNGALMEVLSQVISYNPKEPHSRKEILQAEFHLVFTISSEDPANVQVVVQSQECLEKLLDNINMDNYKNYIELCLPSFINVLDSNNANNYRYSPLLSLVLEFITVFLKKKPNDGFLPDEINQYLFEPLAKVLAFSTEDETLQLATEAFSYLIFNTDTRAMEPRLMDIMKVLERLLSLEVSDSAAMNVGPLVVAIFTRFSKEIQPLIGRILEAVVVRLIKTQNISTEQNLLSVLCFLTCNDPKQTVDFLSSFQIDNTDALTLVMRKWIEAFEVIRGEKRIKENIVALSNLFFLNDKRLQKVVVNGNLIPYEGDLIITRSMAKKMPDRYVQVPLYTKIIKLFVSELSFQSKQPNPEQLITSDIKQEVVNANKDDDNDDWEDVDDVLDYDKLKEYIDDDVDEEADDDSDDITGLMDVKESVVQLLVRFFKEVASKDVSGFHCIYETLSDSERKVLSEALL


Key:
Kap114p wild type = molecular target: T1, Kap114p wild type; assay: ITC; MicroCal iTC200, 25 °C, 20 mM HEPES pH 7.4, 150 mM NaCl; high concentration: 50 µM wild type or mutant Kap114p in the sample cell, 500 µM wild type or mutant yTBPC in the syringe; triplicate; settings: both partners purified
Kap114p (Y370A) = molecular target: T2, Kap114p (Y370A); assay: ITC; MicroCal iTC200, 25 °C, 20 mM HEPES pH 7.4, 150 mM NaCl; low concentration: 25 µM wild type or mutant Kap114p in the sample cell, 250 µM wild type or mutant yTBPC in the syringe; triplicate; settings: both partners purified

Binder | Kd (Kap114p wild type) [nM] | Kd (Kap114p (Y370A)) [nM]
yTBP^C (K145A) (domain or fragment, S. cerevisiae, UniProt P13393 61-240, looked up, also called yTBP(K145A); pET28a-Spt15 (61-240) (K145A); source: E. coli Rosetta, purified (Ni-NTA, HiTrap SP, Superdex 75); not shown: His6, N-terminal, cleaved) SGIVPTLQNIVATVTLGCRLDLKTVALHARNAEYNPKRFAAVIMRIREPKTTALIFASGKMVVTGAKSEDDSKLASRKYARIIQAIGFAAKFTDFKIQNIVGSCDVKFPIRLEGLAFSHGTFSSYEPELFPGLIYRMVKPKIVLLIFVSGKIVLTGAKQREEIYQAFEAIYPVLSEFRKM | 238 | –
yTBP^C (N91A) (domain or fragment, S. cerevisiae, UniProt P13393 61-240, looked up, also called yTBP(N91A); His-yTBP (61-240) (N91A); source: E. coli Rosetta, purified (Ni-NTA, HiTrap SP, Superdex 75); not shown: His6, N-terminal, cleaved) SGIVPTLQNIVATVTLGCRLDLKTVALHARAAEYNPKRFAAVIMRIREPKTTALIFASGKMVVTGAKSEDDSKLASRKYARIIQKIGFAAKFTDFKIQNIVGSCDVKFPIRLEGLAFSHGTFSSYEPELFPGLIYRMVKPKIVLLIFVSGKIVLTGAKQREEIYQAFEAIYPVLSEFRKM | 28.9 | 938

Reference: publication PMC10491584, “Structural convergence endows nuclear transport receptor Kap114p with a transcriptional repressor function toward TATA-binding protein” (Nature Communications, 2023)
